Test results: the Human Domainome abundance scans (Beltran et al. 2025)
± gives the uncertainty stated by the source.

B1: POU domain, class 3, transcription factor 3, residues 408 to 463; numbered along this chain, P20264 (parent)
chain: KKRTSIEVSVKGALESHFLKCPKPSAQEITNLADSLQLEKEVVRVWFCNRRQKEKR

Variants of: B1
Assay: abundance fitness (aPCA) (normalised: wild type 0, dead -1); higher = more abundant; growth selection in yeast, the domain comes from the species named
Conditions: Homo sapiens

Abundance fitness: each site, then its substitutions
C48: E 0.069 ± 0.13 | G -0.109 ± 0.073 | I 0.045 ± 0.14 | A -0.12 ± 0.12 | Q 0.131 ± 0.088 | L -0.047 ± 0.079 | K -0.074 ± 0.11 | N 0.211 ± 0.2 | M 0.026 ± 0.11 | D -0.029 ± 0.2 | P -0.657 ± 0.13
Q27: K -0.095 ± 0.11 | M -0.194 ± 0.1 | G -0.076 ± 0.067 | P -0.279 ± 0.084 | Y -0.195 ± 0.15 | I -0.312 ± 0.16 | V -0.11 ± 0.07 | A -0.049 ± 0.081 | H -0.123 ± 0.12 | W -0.222 ± 0.076 | L -0.091 ± 0.068 | S -0.098 ± 0.073 | R -0.055 ± 0.058 | N 0.098 ± 0.19 | C -0.171 ± 0.1 | E -0.036 ± 0.11 | T -0.151 ± 0.11 | F -0.27 ± 0.13
N31: S -0.033 ± 0.038 | Y -0.009 ± 0.098
V45: C -0.177 ± 0.09 | Q 0.052 ± 0.097 | W -0.162 ± 0.087 | R -0.109 ± 0.057 | F -0.211 ± 0.11 | T -0.028 ± 0.097 | Y -0.28 ± 0.14 | M -0.06 ± 0.13 | S 0.032 ± 0.064 | D 0.098 ± 0.15 | H 0.103 ± 0.11 | L -0.042 ± 0.074 | E 0.034 ± 0.08 | K -0.024 ± 0.096 | G -0.058 ± 0.063 | N -0.206 ± 0.14
E41: T -0.308 ± 0.098 | S -0.243 ± 0.071 | C -0.54 ± 0.1 | Y -0.625 ± 0.17 | M -0.534 ± 0.1 | H -0.196 ± 0.12 | F -1.1 ± 0.39 | N -0.318 ± 0.13 | P -0.933 ± 0.17 | Q -0.414 ± 0.14 | A -0.344 ± 0.072 | G -0.305 ± 0.052 | W -0.3 ± 0.089 | R -0.352 ± 0.057 | D 0.037 ± 0.12 | V -0.884 ± 0.09
D34: N 0.143 ± 0.12
Q37: E -0.042 ± 0.097 | S -0.054 ± 0.068 | Y -0.342 ± 0.16 | G 0.013 ± 0.059 | A 0.013 ± 0.063 | W -0.374 ± 0.092 | F -0.3 ± 0.16 | I -0.453 ± 0.13 | T -0.257 ± 0.093 | R -0.072 ± 0.06 | L -0.188 ± 0.063 | H -0.034 ± 0.14 | P -0.671 ± 0.13 | D 0 ± 0.11 | N -0.037 ± 0.13 | C -0.156 ± 0.11
S25: L -0.559 ± 0.078 | V -0.45 ± 0.081 | P -0.373 ± 0.14 | H -0.593 ± 0.17 | G -0.172 ± 0.063 | K -0.565 ± 0.11 | N -0.092 ± 0.16 | F -0.773 ± 0.25 | T -0.075 ± 0.11 | C -0.185 ± 0.11 | I -0.84 ± 0.41 | R -0.398 ± 0.065 | Q -0.537 ± 0.11 | Y -0.66 ± 0.13 | E -0.287 ± 0.11 | M -0.681 ± 0.15 | W -0.885 ± 0.11
L32: T -0.78 ± 0.12 | V -0.245 ± 0.067 | H -0.652 ± 0.16 | A -0.92 ± 0.15 | P -0.935 ± 0.19 | S -0.95 ± 0.13 | K -1.06 ± 0.2 | W -0.967 ± 0.17 | F -0.556 ± 0.16 | G -0.88 ± 0.1 | N -0.897 ± 0.19 | R -0.758 ± 0.091 | Q -0.923 ± 0.16 | E -0.782 ± 0.13 | C -1.07 ± 0.41 | I 0.187 ± 0.17 | D -1.03 ± 0.14
V43: D -0.972 ± 0.22 | C -0.714 ± 0.13 | T -0.595 ± 0.14 | P -0.818 ± 0.13 | W -0.994 ± 0.13 | H -0.673 ± 0.2 | G -0.967 ± 0.088 | R -0.931 ± 0.086 | N -0.493 ± 0.42 | M -0.863 ± 0.15 | S -0.926 ± 0.12 | F -1.02 ± 0.23 | Q -0.88 ± 0.16 | L -0.382 ± 0.085 | E -0.792 ± 0.12 | I -0.341 ± 0.14
A33: T -0.939 ± 0.16 | V -0.955 ± 0.11 | R -0.989 ± 0.087 | W -0.878 ± 0.12 | N -0.941 ± 0.26 | Y -0.836 ± 0.18 | E -0.964 ± 0.21 | K -0.981 ± 0.19 | M -0.823 ± 0.13 | G -0.623 ± 0.079 | I -0.864 ± 0.17 | F -0.941 ± 0.17 | P -0.909 ± 0.15 | C -0.515 ± 0.11 | Q -0.931 ± 0.18 | H -0.513 ± 0.22 | D -0.863 ± 0.13 | S -0.052 ± 0.078 | L -0.889 ± 0.098
R44: S -0.55 ± 0.35 | W -0.377 ± 0.43 | E 0.213 ± 0.29 | V -0.224 ± 0.37 | G -0.165 ± 0.49
A26: E 0.031 ± 0.087 | L -0.005 ± 0.074 | S -0.168 ± 0.08 | V -0.1 ± 0.069 | P 0.039 ± 0.13 | F -0.297 ± 0.15 | T -0.081 ± 0.1 | C -0.102 ± 0.087 | W -0.155 ± 0.083 | M -0.063 ± 0.1 | D -0.004 ± 0.11 | Y -0.087 ± 0.13 | H 0.071 ± 0.17 | R -0.073 ± 0.064 | G -0.086 ± 0.06 | Q -0.024 ± 0.11
E39: F -0.948 ± 0.19 | H -0.224 ± 0.13 | A -0.153 ± 0.069 | W -0.89 ± 0.12 | R -0.327 ± 0.064 | Q -0.322 ± 0.099 | T -0.074 ± 0.1 | P -0.116 ± 0.1 | D 0.124 ± 0.12 | S -0.055 ± 0.07 | L -0.719 ± 0.11 | K -0.258 ± 0.092 | M -0.428 ± 0.11 | G -0.257 ± 0.064 | C -0.109 ± 0.079 | Y -0.927 ± 0.15 | I -0.919 ± 0.17 | N 0.013 ± 0.13
S35: Q -0.04 ± 0.13 | I -0.122 ± 0.11 | F -0.177 ± 0.098 | G -0.194 ± 0.077 | N -0.078 ± 0.13 | C -0.079 ± 0.14 | H -0.048 ± 0.16 | M -0.133 ± 0.11 | W -0.228 ± 0.12 | A -0.019 ± 0.079 | K 0.162 ± 0.12 | P -0.76 ± 0.14 | E -0.032 ± 0.11 | D -0.158 ± 0.13 | T -0.07 ± 0.098 | L -0.083 ± 0.076 | R 0.117 ± 0.076
T30: D 0.048 ± 0.1 | K -0.044 ± 0.1 | I -0.035 ± 0.099 | M -0.057 ± 0.095 | G -0.072 ± 0.062 | W -0.327 ± 0.095 | A -0.028 ± 0.077 | S 0.031 ± 0.071 | N -0.095 ± 0.099 | R -0.17 ± 0.066 | P -0.847 ± 0.14 | E -0.107 ± 0.11 | Q 0.079 ± 0.11 | V -0.1 ± 0.064 | C -0.037 ± 0.12 | F -0.082 ± 0.12 | Y -0.337 ± 0.13 | H -0.153 ± 0.12
V42: E 0.032 ± 0.09 | G -0.339 ± 0.059 | K -0.333 ± 0.14 | A 0.003 ± 0.076 | Q -0.016 ± 0.12 | M 0.084 ± 0.14 | N -0.586 ± 0.25 | H -0.34 ± 0.18 | L -0.091 ± 0.067 | D -0.014 ± 0.19 | I -0.107 ± 0.11 | S -0.094 ± 0.087 | Y -0.02 ± 0.18 | W -0.108 ± 0.091 | F -0.056 ± 0.13 | R -0.224 ± 0.065 | P -0.556 ± 0.13 | C -0.172 ± 0.14
E28: A -0.118 ± 0.083 | S -0.45 ± 0.09 | K -0.538 ± 0.13 | Y -0.048 ± 0.18 | Q -0.145 ± 0.15 | W -0.59 ± 0.1 | G -0.237 ± 0.067 | C -0.368 ± 0.12 | I -0.223 ± 0.26 | F -0.573 ± 0.15 | H -0.554 ± 0.25 | R -0.456 ± 0.069 | N -0.455 ± 0.19 | P -0.838 ± 0.13 | D -0.256 ± 0.15 | V -0.442 ± 0.084 | T -0.251 ± 0.13
L36: Y -0.313 ± 0.11 | H -0.434 ± 0.12 | F -0.177 ± 0.11 | R -0.955 ± 0.081 | I -0.377 ± 0.11 | S -0.866 ± 0.12 | C -0.517 ± 0.15 | N -0.869 ± 0.19 | Q -0.812 ± 0.13 | W -0.565 ± 0.1 | M -0.166 ± 0.098 | V -0.522 ± 0.07 | P -1.03 ± 0.18 | D -1.02 ± 0.16 | G -0.929 ± 0.079 | A -0.906 ± 0.092
P24: T -0.825 ± 0.24 | R -0.918 ± 0.094 | S -0.874 ± 0.13 | L -0.881 ± 0.099 | V -0.792 ± 0.093 | M -0.867 ± 0.16 | Q -0.842 ± 0.2
L38: P -0.951 ± 0.17 | G -0.943 ± 0.076 | H -0.735 ± 0.16 | K -0.895 ± 0.14 | Y -0.982 ± 0.2 | T -0.18 ± 0.087 | C -0.387 ± 0.09 | S -0.699 ± 0.078 | Q -0.605 ± 0.11 | R -0.889 ± 0.08 | M -0.13 ± 0.095 | I -0.048 ± 0.16 | A -0.693 ± 0.074 | F -0.91 ± 0.18
W46: R -0.248 ± 0.22 | S -0.422 ± 0.45
K40: R -0.06 ± 0.071 | G -0.056 ± 0.07 | I 0.048 ± 0.16 | Q 0.122 ± 0.14 | L -0.103 ± 0.092 | C -0.038 ± 0.1 | H -0.136 ± 0.24 | T -0.076 ± 0.12 | S 0.016 ± 0.084 | M -0.336 ± 0.16 | E 0.077 ± 0.11 | D -0.028 ± 0.16 | W -0.073 ± 0.089 | N -0.118 ± 0.18
F47: R -1.07 ± 0.29 | M -0.144 ± 0.34 | D -0.295 ± 0.4 | L -0.461 ± 0.28 | S -0.442 ± 0.34
I29: V -0.204 ± 0.08 | C -0.574 ± 0.14 | E -0.301 ± 0.11 | W -0.903 ± 0.14 | G -0.899 ± 0.099 | F -0.832 ± 0.2 | Y -0.889 ± 0.23 | M -0.028 ± 0.11 | D -0.871 ± 0.24 | K -1.07 ± 0.17 | S -0.781 ± 0.15 | H -0.997 ± 0.41 | L -0.038 ± 0.08 | N -0.982 ± 0.26 | Q -0.822 ± 0.15 | T -0.849 ± 0.19 | R -0.859 ± 0.097 | P -0.871 ± 0.21
